Measured values as given in the supplement of paper PMC7125110.
± gives the standard error. Variants at the floor of the assay were thinned out.

B1: glmS ribozyme (parent)
chain: AUAAAAGCGCCAGAACUACAGAAAUGUAGUUGACGAGGAGGAGGUUUAUCGAAUUUUCGGCGGAUGCCUCCAAA

What was measured:
Conditions in all cases: with glucosamine-6-phosphate
[1] = variants of: B1; assay: self-cleavage kobs at 160 uM GlcN6P; higher = faster cleavage; RNA array
How it was run: (§1)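 Barcoded ribozyme variants were transcribed in situ on sequenced MiSeq chips by E. coli RNA polymerase. At 37 °C, a hybridised Cy3 probe tracked them while glucosamine-6-phosphate (40 μM to 10 mM) in HEPES/KCl/Mg(OAc)2 buffer flowed in and tiles were imaged over ~14 h. Per-tile medians of signals normalised to baseline and to non-cleaving reference variants were fit to one- or two-exponential decays, giving kobs. kcat and KM came from weighted Michaelis–Menten fits across concentrations.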

[2] = variants of: B1; assay: self-cleavage kobs at 640 uM GlcN6P; higher = faster cleavage; RNA array
How it was run: as §1

[3] = variants of: B1; assay: self-cleavage kobs at 2500 uM GlcN6P; higher = faster cleavage; RNA array
How it was run: as §1

[4] = variants of: B1; assay: self-cleavage kobs at 10000 uM GlcN6P; higher = faster cleavage; RNA array
How it was run: as §1

Variant	self-cleavage kobs at 160 uM GlcN6P [1]	self-cleavage kobs at 640 uM GlcN6P [2]	self-cleavage kobs at 2500 uM GlcN6P [3]	self-cleavage kobs at 10000 uM GlcN6P [4]
G29U G38C A39U C50A	< 1e-05 s⁻¹	< 1e-05 s⁻¹		
A12U C61A U69G	< 1e-05 s⁻¹			
C16G A39C U45C A48C	< 1e-05 s⁻¹	< 1e-05 s⁻¹		
G21U C71G	0.000226 ± 5.1e-05 s⁻¹	0.000218 ± 3.9e-05 s⁻¹	0.000294 ± 5.9e-05 s⁻¹	
G29U A52G C61G C68U U69A	4.87e-05 ± 1.6e-05 s⁻¹	3.32e-05 ± 1.6e-05 s⁻¹		
A15C C16G C50G A64C	0.000208 ± 6.7e-05 s⁻¹	7.03e-05 ± 2.7e-05 s⁻¹	5.92e-05 ± 1.8e-05 s⁻¹	
A12G G44C	< 1e-05 s⁻¹	< 1e-05 s⁻¹	< 1e-05 s⁻¹	
G13C G44C C61A	< 1e-05 s⁻¹			
A33C A42U U46C U54G	< 1e-05 s⁻¹		< 1e-05 s⁻¹	
A15U A33U C50U G51U G62U G63A C70U	9.07e-05 ± 2.6e-05 s⁻¹	0.000118 ± 3.6e-05 s⁻¹	7.13e-05 ± 2.3e-05 s⁻¹	
A15G A53G U65C	6.49e-05 ± 1.6e-05 s⁻¹	0.000264 ± 6.9e-05 s⁻¹	0.000485 ± 0.00011 s⁻¹	
U31C G35C G40C	< 1e-05 s⁻¹		< 1e-05 s⁻¹	< 1e-05 s⁻¹
C16U A52G C68U	6.54e-05 ± 2.2e-05 s⁻¹	0.000491 ± 0.00012 s⁻¹	0.000422 ± 0.00016 s⁻¹	
G32U G51U G66A	< 1e-05 s⁻¹	< 1e-05 s⁻¹		
U17C C50G C71U	6.74e-05 ± 2.2e-05 s⁻¹	0.000319 ± 9.7e-05 s⁻¹	0.000253 ± 4.6e-05 s⁻¹	
G32C C34U A36U C61U	< 1e-05 s⁻¹	< 1e-05 s⁻¹		
G13U A36G G43A G66C C70A	< 1e-05 s⁻¹	< 1e-05 s⁻¹	< 1e-05 s⁻¹	
A33C G62A G63A	< 1e-05 s⁻¹		< 1e-05 s⁻¹	
A33C G41C G60A	< 1e-05 s⁻¹	< 1e-05 s⁻¹	< 1e-05 s⁻¹	
U30G A33U	< 1e-05 s⁻¹			
A14G A39G U69A	0.000285 ± 7.7e-05 s⁻¹	0.000936 ± 0.00031 s⁻¹	0.000786 ± 0.00024 s⁻¹	
U30A A53U C70U	0.000167 ± 4.8e-05 s⁻¹	0.000821 ± 0.0002 s⁻¹		
A14G U57A	4.7e-05 ± 1.1e-05 s⁻¹	0.000139 ± 2.9e-05 s⁻¹	0.000418 ± 4.7e-05 s⁻¹	
A12U G38C A53G U55C C67G	< 1e-05 s⁻¹	< 1e-05 s⁻¹	< 1e-05 s⁻¹	
A12G G51U G66A	< 1e-05 s⁻¹		< 1e-05 s⁻¹	
C16G G29U G37A	5.27e-05 ± 1.6e-05 s⁻¹	0.000272 ± 7.4e-05 s⁻¹	0.000382 ± 9.7e-05 s⁻¹	
C16U G38U U54C G66U C71A	< 1e-05 s⁻¹	< 1e-05 s⁻¹		

Variant	self-cleavage kobs at 160 uM GlcN6P [1]	self-cleavage kobs at 640 uM GlcN6P [2]	self-cleavage kobs at 2500 uM GlcN6P [3]	self-cleavage kobs at 10000 uM GlcN6P [4]
A14U U65C U69C	< 1e-05 s⁻¹			
G32C U46A C50A A52U	< 1e-05 s⁻¹	< 1e-05 s⁻¹	< 1e-05 s⁻¹	
G32A U55G G59C C70G	6.64e-05 ± 2.6e-05 s⁻¹	0.000174 ± 6.5e-05 s⁻¹	5.89e-05 ± 2.5e-05 s⁻¹	
G29U A42U A52U C67G	< 1e-05 s⁻¹	< 1e-05 s⁻¹		
U31G A52C	< 1e-05 s⁻¹	< 1e-05 s⁻¹		
U30C G35U C58U C61A	< 1e-05 s⁻¹	< 1e-05 s⁻¹	< 1e-05 s⁻¹	
A14U U30A C50G C58G	0.000116 ± 2.1e-05 s⁻¹	9.41e-05 ± 1.7e-05 s⁻¹	0.000131 ± 2.3e-05 s⁻¹	
G29C G37C G41C	< 1e-05 s⁻¹		< 1e-05 s⁻¹	
A15G C58G C68U	8.66e-05 ± 3.1e-05 s⁻¹	6.1e-05 ± 1.7e-05 s⁻¹	5.67e-05 ± 1.6e-05 s⁻¹	3.61e-05 ± 1.6e-05 s⁻¹
G29C G59U C68U	0.000173 ± 8.1e-05 s⁻¹			
A14G A53C	0.00202 ± 0.00065 s⁻¹	0.00488 ± 0.0012 s⁻¹	0.01 ± 0.0023 s⁻¹	0.0384 ± 0.016 s⁻¹
A14U A15G G35C	< 1e-05 s⁻¹		< 1e-05 s⁻¹	< 1e-05 s⁻¹
C16G G44C C68U	< 1e-05 s⁻¹		< 1e-05 s⁻¹	
G32U C61U	< 1e-05 s⁻¹	< 1e-05 s⁻¹		
C16G A48C G62U	< 1e-05 s⁻¹	< 1e-05 s⁻¹		
G13A G44U C61G U65A	< 1e-05 s⁻¹	< 1e-05 s⁻¹	< 1e-05 s⁻¹	
A15C C58U C61A	0.0001 ± 4.6e-05 s⁻¹	6.79e-05 ± 2.5e-05 s⁻¹		
A14G A33C C70A	< 1e-05 s⁻¹			
G29A G32C A33U G60C G66U	< 1e-05 s⁻¹			< 1e-05 s⁻¹
C16G G29C C71G	9.16e-05 ± 1.5e-05 s⁻¹			
A14C A36U G38C A39G	< 1e-05 s⁻¹		< 1e-05 s⁻¹	
G13C G43C C70A	< 1e-05 s⁻¹			
A15C C16G C67G	< 1e-05 s⁻¹			
A15G A33U G40U C67G	< 1e-05 s⁻¹		< 1e-05 s⁻¹	
G13C U45C U46C C68A C70G	< 1e-05 s⁻¹		< 1e-05 s⁻¹	
C19A C34G A39C	< 1e-05 s⁻¹	< 1e-05 s⁻¹	< 1e-05 s⁻¹	
